In patent US20250333541A1, “ANTIBODY, AND DRUG CONJUGATE AND USE THEREOF” (EVOPOINT BIOSCIENCES CO., LTD., priority 2022, published 2025):

T1: cynomolgus monkey TF-His (cynomolgus monkey, UniProt A0A2K5VX02 33-253)
T1 construct: range 33-252; Recombinant extracellular segment expressed in HEK293-EBNA cells and purified on a nickel column; also called c.TF-His; c; TF-his; not shown: His tag from vector pTT5-His
T1 sequence: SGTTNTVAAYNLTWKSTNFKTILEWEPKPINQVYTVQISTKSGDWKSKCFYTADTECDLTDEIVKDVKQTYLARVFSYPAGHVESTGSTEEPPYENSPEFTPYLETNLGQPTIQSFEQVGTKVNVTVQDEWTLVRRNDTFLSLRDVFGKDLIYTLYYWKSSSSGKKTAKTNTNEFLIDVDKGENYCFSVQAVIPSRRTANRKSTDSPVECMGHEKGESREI


Key:
[1] = biological target: T2, tissue factor (TF) on the surface of TF-positive tumor cells (human, UniProt P13726 33-295); test: flow cytometry on KYSE520 cells
T2 construct: whole, on cells; The cell line used is named under assay or readout in each row; also called TF on NCI-H358 cells; TF on KYSE520 cells
Description: (§1) A TF low/medium-expressing cell line NCI-H358 (source: Nanjing Cobioer, CBP60136) and a TF high-expressing cell line KYSE520 (source: Nanjing Cobioer, CBP60658) were digested with trypsin, collected by centrifugation, and washed three times with pre-cooled PBS. The cells were resuspended in 1% BSA and seeded into a 96-well sharp-bottom plate at 3×10⁵ cells/well. Each of the antibodies obtained by the gradient dilution was added, and the plate was incubated at 4° C. for 1 h. The cells were washed three times with pre-cooled PBS. 1 μL of anti-human fluorescent secondary antibody (APC anti-human IgG Fc Antibody, Biolegend, 410712) was added to each well, and the plate was incubated at 4° C. for 0.5 h. The cells were washed three times with pre-cooled PBS, resuspended, and detected by a flow cytometer (Sony, LE-SA3800GA). The data were imported into GraphPad software for curve fitting.

[2] = biological target: T2, tissue factor (TF) on the surface of …; test: flow cytometry on NCI-H358 cells
Description: as §1

[3] = biological target: T1, cynomolgus monkey TF-His; test: ELISA, plate coated with c.TF-His
Description: (§2) The ELISA plate was coated overnight with TF antigen (h.TF-His or c.TF-His antigen) in 50 mM carbonate coating buffer (CBS coating solution) at a coating concentration of 1 μg/mL in a volume of 100 μL at 4° C. The next day, the coating solution was removed, each well was washed once with 300 μL of PBS, and 100 μL of 2% BSA (Biotopped, A6020) in PBS was added to each well for blocking at 37° C. for 2 h. The test sample was subjected to a gradient dilution with 2% BSA in PBS to establish 11 concentration points. 100 μL of each of the samples obtained by the gradient dilution was added to the plate, and the plate was incubated at 37° C. for 2 h. The supernatant was removed, and each well was washed three times with 300 μL of PBST. 100 μL of HRP-conjugated secondary antibody in 2% BSA was added to each well, and the plate was incubated at 37° C. for 1 h. […] At the end of the incubation, the secondary antibody was removed, each well was washed five times with 300 μL of PBST, and 100 μL of TMB substrate (Huzhou InnoReagents Co., Ltd., TMB-S-004) was added to each well for color development for 5-20 min. 50 μL of 2 N HCl was added to each well to stop the reaction, and OD450 nm values were read using a microplate reader (manufacturer: MD, model: SpectraMax) and imported into GraphPad software for fitting and plotting to determine the binding of the samples to TF antigenic proteins.
The assay was performed as described in the general methods. Briefly, an ELISA plate coated with a human TF-his protein or a cynomolgus monkey TF-his protein was blocked with 2% BSA at 37° C. for 2 h, and each of the antibodies obtained by the gradient dilution (starting at 10 μg/mL, 3-fold graded dilution, 11 concentration points) was added. The plate was incubated at 37° C. for 2 h.

[4] = biological target: T1, cynomolgus monkey TF-His; test: BLI (ForteBio Octet), antibody on ProA sensor, TF-His as analyte
Description: The dynamic affinity of the humanized antibodies was determined by ForteBio. The experimental procedures were as follows: a ProA sensor (18-5010, Octet) was taken out and pre-wetted with a PBST diluent (pH 7.4) for 10 min. The antibodies to be immobilized were diluted to 5 μg/mL. […] The program was set up, the sensor plate and sample plate were put in, then the program started. The sensor was regenerated with 20 mM glycine solution (pH 1.7). The data were analyzed using Octet analysis software to derive a result graph.

[5] = biological target: T3, human TF-His (human, UniProt P13726 33-251); test: antigenic protein-based ELISA on TF antigen (coating antigen not named, taken as human TF-His), antibody diluted in human serum, 0 days at 37 C
T3 construct: range 33-251; Recombinant extracellular segment expressed in HEK293-EBNA cells and purified on a nickel column; also called h.TF-His; h; TF-his; not shown: His tag from vector pTT5-His
Description: as §2, with “proteins. […]” for “proteins.”

Binder	EC50 [1]	EC50 [2]	EC50 [3]	Kd [4]	koff [4]	kon [4]	EC50 (read off the curve) [5]
22F11H5-hz1 (antibody, human IgG1, kappa, V domains shown, Humanized IgG1 kappa) VH: QVQLVQSGAEVKQPGASVKVSCKASGYTFTTYWMHWVRQAPGQGLEWMGMIDPSDSYTTYAQKFQGRVTLTVDTSTSTAYMELSSLRSEDTAVYYCARGSGPGLFAYWGQGTLVTVSS VL: DIQETQSPSSLSASVGDRVTITCRASQDIRNYLNWYQQKPGKAPKLLIYHTSRLQSGVPSRFSGSGSGTDYTLTISSLQPEDFATYYCQQGNMPPYTFGQGTKVEIKR	0.0357 µg/mL	0.0671 µg/mL	0.0114 µg/mL	12.7 nM	0.00411 s⁻¹	324000 M⁻¹ s⁻¹	~0.03 µg/mL
27H8H3-hz1 (antibody, human IgG1, kappa, V domains shown, Humanized IgG1 kappa) VH: QVQLVQSGAEVKKPGASVKVSCKASGYTFTTYWMHWVRQAPGQGLEWMGMIDPSDSYTSYAQKFQGRVTLTVDTSTSTAYMELSSLRSEDTAVYYCTRGSGPGLFAYWGQGTLVTVSS VL: DIQETQSPSSLSASVGDRVTITCRASQGISNYLNWYQQKPGKAPKLLIYHTSRLHSGVPSRFSGSVSGTDFTLTISSLQPEDFATYFCQQGNTLPYTFGQGTKVEIKR	0.0594 µg/mL	0.0991 µg/mL	0.0114 µg/mL	42.5 nM	0.0125 s⁻¹	295000 M⁻¹ s⁻¹	~0.05 µg/mL
